Test results as given in patent US11844843 (DYNE THERAPEUTICS, dated 2023).
Changes are numbered by the printed parent chain. Names may count otherwise.

T1: recombinant cynomolgus monkey (Macaca fascicularis) TfR1 (cynomolgus monkey (Macaca fascicularis), UniProt Q5RDH6 87-760 (Pongo abelii entry), limits assumed)
T1 construct: Recombinant protein; also called cTfR1; cyTfR1
T1 chain: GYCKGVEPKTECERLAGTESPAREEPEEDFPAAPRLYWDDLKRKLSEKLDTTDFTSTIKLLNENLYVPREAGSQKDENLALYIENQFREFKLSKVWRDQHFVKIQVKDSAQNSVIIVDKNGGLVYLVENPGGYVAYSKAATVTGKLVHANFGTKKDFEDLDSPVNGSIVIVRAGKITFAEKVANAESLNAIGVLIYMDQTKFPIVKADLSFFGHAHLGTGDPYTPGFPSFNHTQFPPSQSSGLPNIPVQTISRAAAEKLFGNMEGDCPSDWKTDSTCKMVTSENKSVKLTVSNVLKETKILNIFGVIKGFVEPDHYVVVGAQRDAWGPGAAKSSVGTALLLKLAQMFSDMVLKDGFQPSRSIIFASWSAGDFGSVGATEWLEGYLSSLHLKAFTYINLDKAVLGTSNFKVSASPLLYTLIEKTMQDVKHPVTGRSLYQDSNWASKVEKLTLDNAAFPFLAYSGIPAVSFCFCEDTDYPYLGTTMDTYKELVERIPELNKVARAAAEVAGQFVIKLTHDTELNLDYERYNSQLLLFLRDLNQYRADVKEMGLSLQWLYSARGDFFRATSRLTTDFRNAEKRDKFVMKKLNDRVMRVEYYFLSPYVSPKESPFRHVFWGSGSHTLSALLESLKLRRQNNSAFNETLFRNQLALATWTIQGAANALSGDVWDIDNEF

B1: humanized anti-TfR Fab 5H12 VH5 (C33Y)/Vκ4 (Fab, V domains shown)
VH: QVQLVQSGAEVKKPGASVKVSCKASGYSFTDYYINWVRQAPGQGLEWMGWIYPGSGNTRYSERFKGRVTITRDTSASTAYMELSSLRSEDTAVYYCAREDYYPYHGMDYWGQGTLVTVSS
VL: DIVMTQSPDSLAVSLGERATINCRASESVDGYDNSFMHWYQQKPGQPPKLLIFRASNLESGVPDRFSGSGSGTDFTLTISSLQAEDVAVYYCQQSSEDPWTFGQGTKLEIKR
notes: also called 5H12 (VH5-C33Y/Vk4)
B2: humanized anti-TfR Fab 5H12 VH5 (C33Y)/Vκ3 (Fab, V domains shown)
VH: B1 VH
VL: B1 VL with M4L, G72R
notes: also called 5H12 (VH5-C33Y/Vk3)
B3: humanized anti-TfR Fab 3A4 VH3 (N54T)/Vκ4 (Fab, V domains shown)
VH: EVQLVQSGSELKKPGASVKVSCTASGFNIKDDYMYWVRQPPGKGLEWIGWIDPETGDTEYASKFQDRVTVTADTSTNTAYMELSSLRSEDTAVYYCTLWLRRGLDYWGQGTLVTVSS
VL: DIVMTQSPLSLPVTPGEPASISCRSSKSLLHSNGYTYLFWFQQRPGQSPRLLIYRMSNLASGVPDRFSGSGSGTDFTLKISRVEAEDVGVYYCMQHLEYPFTFGGGTKVEIKR
notes: also called 3A4 (VH3-N54T/Vk4)
B4: humanized anti-TfR Fab 3A4 VH3 (N54S)/Vκ4 (Fab, V domains shown)
VH: B3 VH with T55S
VL: B3 VL
notes: also called 3A4 (VH3-N54S/Vk4)
B5: humanized anti-TfR Fab 3M12 VH3/Vκ2 (Fab, V domains shown)
VH: QVQLQESGPGLVKPSQTLSLTCSVTGYSITSGYYWNWIRQPPGKGLEWMGYITFDGANNYNPSLKNRVSISRDTSKNQFSLKLSSVTAEDTATYYCTRSSYDYDVLDYWGQGTTVTVSS
VL: DIQMTQSPSSLSASVGDRVTITCRASQDISNFLNWYQQKPGQPVKLLIYYTSRLHSGVPSRFSGSGSGTDFTLTISSLQPEDFATYFCQQGHTLPYTFGQGTKLEIKR
notes: also called 3M12 (VH3/Vk2)

Molecular target: T2, recombinant human TfR1 (transferrin receptor protein 1) (human, UniProt P02786 89-760)
T2 construct: Recombinant protein in SPR and ELISA; they were assigned to this molecule; also called hTfR1; huTfR1
Assay: Biacore, d0; TfR1 species not stated

Kd [nM]	Binder
0.626	B1
0.627	B2
3.09	B3
1.34	B4
0.395	B5

Molecular target: T2, recombinant human TfR1 (transferrin …)
Assay: Biacore, d25; TfR1 species not stated

Kd [nM]	Binder
1.33	B1
1.07	B2
3.01	B3
1.39	B4
0.567	B5

Molecular target: T2, recombinant human TfR1 (transferrin …)
Assay: ELISA on hTfR1, unconjugated Fab, % normalized RFUs

EC50 [nM]	Binder
7.2	B5

Molecular target: T1, recombinant cynomolgus monkey (Macaca …)
Assay: ELISA on cTfR1, unconjugated Fab, % normalized RFUs

EC50 [nM]	Binder
25.5	B5

Molecular target: T2, recombinant human TfR1 (transferrin …)
Assay: ELISA on hTfR1, unconjugated Fab, % normalized RFUs
Remark: another data set of the same source

EC50 [nM]	Binder
2.3	B3
1.9	B4

Molecular target: T1, recombinant cynomolgus monkey (Macaca …)
Assay: ELISA on cTfR1, unconjugated Fab, % normalized RFUs
Remark: another data set of the same source

EC50 [nM]	Binder
> 100	B3
> 100	B4

Molecular target: T2, recombinant human TfR1 (transferrin …)
Assay: ELISA on hTfR1, unconjugated Fab, % normalized RFUs
Remark: another data set of the same source

EC50 [nM]	Binder
> 100	B1
> 100	B2

Molecular target: T1, recombinant cynomolgus monkey (Macaca …)
Assay: ELISA on cTfR1, unconjugated Fab, % normalized RFUs
Remark: another data set of the same source

EC50 [nM]	Binder
3.4	B1
2	B2

Molecular target: T2, recombinant human TfR1 (transferrin …)
Assay: kinetic analysis (Biacore), Table 7; TfR1 species not stated

Kd [nM]	koff [s⁻¹]	kon [M⁻¹ s⁻¹]	Binder
0.626	0.000117	186000	B1
0.627	0.000122	195000	B2
3.09	0.000705	228000	B3
1.34			B4
0.395	0.000104	264000	B5

Molecular target: T2, recombinant human TfR1 (transferrin …)
Assay: Table 14, unconjugated Fab, d9 (after 9 days at 40 C); method not named

Binding affinity [nM]	Binder
1730	B1
71.9	B2
0.4	B3
0.65	B4
0.98	B5

Molecular target: T1, recombinant cynomolgus monkey (Macaca …)
Assay: as above

Binding affinity [nM]	Binder
0.26	B1
0.69	B2
128	B3
248	B4
19.5	B5

Molecular target: T2, recombinant human TfR1 (transferrin …)
Assay: ELISA, recombinant TfR1 coated, unconjugated Fab (row 'Fab binding affinity ELISA')

EC50 [nM]	Binder
2.8	B1
6.3	B2
2.6	B3
1.6	B4
0.8	B5

Molecular target: T1, recombinant cynomolgus monkey (Macaca …)
Assay: as above

EC50 [nM]	Binder
3.3	B1
2.1	B2
156	B3
398	B4
9.9	B5

Molecular target: T2, recombinant human TfR1 (transferrin …)
Assay: Table 14, unconjugated Fab, d0; method not named (values equal ELISA row of Table 13)

Binding affinity [nM]	Binder
2.8	B1
6.3	B2
2.6	B3
1.6	B4
0.8	B5

Molecular target: T1, recombinant cynomolgus monkey (Macaca …)
Assay: as above

Binding affinity [nM]	Binder
3.3	B1
2.1	B2
156	B3
398	B4
9.9	B5

Molecular target: T2, recombinant human TfR1 (transferrin …)
Assay: ELISA on plate-coated recombinant hTfR1, fluorescent anti-(H+L) IgG-A488 detection, % normalized RFUs
Description: (§1) To measure binding of humanized anti-TfR antibodies to TfR1, ELISAs were conducted. High binding, black, flat bottom, 96 well plates (Corning #3925) were first coated with 100 μL/well of recombinant huTfR1 at 1 μg/mL in PBS and incubated at 4° C. overnight. Wells were emptied and residual liquid was removed. Blocking was conducted by adding 200 μL of 1% BSA (w/w) in PBS to each well. Blocking was allowed to proceed for 2 hours at room temperature on a shaker at 30) rpm. After blocking, liquid was removed and wells were washed three times with 300 μL of TBST. Anti-TfR1 antibodies were then added in 0.5% BSA/TBST in triplicate in an 8 point serial dilution (dilution range 5 μg/mL-5 ng/mL). A positive control and isotype controls were also included on the ELISA plate. The plate was incubated at room temperature on an orbital shaker for 60 minutes at 300 rpm, and the plate was washed three times with 300 μL of TBST. Anti-(H+L)IgG-A488 (1:500) (Invitrogen #A11013) was diluted in 0.5% BSA in TBST, and 100 μL was added to each well. The plate was then allowed to incubate at room temperature for 60 minutes at 300 rpm on orbital shaker. The liquid was removed and the plate was washed four times with 300 μL of TBST. […] Data was recorded and analyzed for $EC50$. […]

EC50 [nM]	Binder
7.2	B5

Molecular target: T1, recombinant cynomolgus monkey (Macaca …)
Assay: ELISA on plate-coated recombinant cTfR1, fluorescent anti-(H+L) IgG-A488 detection, % normalized RFUs
Description: as §1

EC50 [nM]	Binder
25.5	B5

Molecular target: T1, recombinant cynomolgus monkey (Macaca …)
Assay: as above
Remark: another data set of the same source
Description: (§2) To measure binding of humanized anti-TfR antibodies to TfR1, ELISAs were conducted. High binding, black, flat bottom, 96 well plates (Corning #3925) were first coated with 100 μL/well of recombinant huTfR1 at 1 μg/mL in PBS and incubated at 4° C. overnight. Wells were emptied and residual liquid was removed. Blocking was conducted by adding 200 μL of 1% BSA (w/w) in PBS to each well. Blocking was allowed to proceed for 2 hours at room temperature on a shaker at 30) rpm. After blocking, liquid was removed and wells were washed three times with 300 μL of TBST. Anti-TfR1 antibodies were then added in 0.5% BSA/TBST in triplicate in an 8 point serial dilution (dilution range 5 μg/mL-5 ng/mL). A positive control and isotype controls were also included on the ELISA plate. The plate was incubated at room temperature on an orbital shaker for 60 minutes at 300 rpm, and the plate was washed three times with 300 μL of TBST. Anti-(H+L)IgG-A488 (1:500) (Invitrogen #A11013) was diluted in 0.5% BSA in TBST, and 100 μL was added to each well. The plate was then allowed to incubate at room temperature for 60 minutes at 300 rpm on orbital shaker. The liquid was removed and the plate was washed four times with 300 μL of TBST. Absorbance was then measured at 495 nm excitation and […] (with a 15 nm bandwidth) on a plate reader. Data was recorded and analyzed for $EC50$. […]

EC50 [nM]	Binder
> 100	B3
> 100	B4

Molecular target: T2, recombinant human TfR1 (transferrin …)
Assay: ELISA on plate-coated recombinant hTfR1, fluorescent anti-(H+L) IgG-A488 detection, % normalized RFUs
Remark: another data set of the same source
Description: To measure binding of humanized anti-TfR antibodies to TfR1, ELISAs were conducted. High binding, black, flat bottom, 96 well plates (Corning #3925) were first coated with 100 μL/well of recombinant huTfR1 at 1 μg/mL in PBS and incubated at 4° C. overnight. Wells were emptied and residual liquid was removed. Blocking was conducted by adding 200 μL of 1% BSA (w/w) in PBS to each well. Blocking was allowed to proceed for 2 hours at room temperature on a shaker at 30) rpm. After blocking, liquid was removed and wells were washed three times with 300 μL of TBST. Anti-TfR1 antibodies were then added in 0.5% BSA/TBST in triplicate in an 8 point serial dilution (dilution range 5 μg/mL-5 ng/mL). A positive control and isotype controls were also included on the ELISA plate. The plate was incubated at room temperature on an orbital shaker for 60 minutes at 300 rpm, and the plate was washed three times with 300 μL of TBST. Anti-(H+L)IgG-A488 (1:500) (Invitrogen #A11013) was diluted in 0.5% BSA in TBST, and 100 μL was added to each well. The plate was then allowed to incubate at room temperature for 60 minutes at 300 rpm on orbital shaker. The liquid was removed and the plate was washed four times with 300 μL of TBST. Absorbance was then measured at 495 nm excitation and […] (with a 15 nm bandwidth) on a plate reader. Data was recorded and analyzed for $EC50$. […] ELISA measurements were conducted using cynomolgus monkey (Macaca fascicularis) TfR1 (cTfR1) according to the same protocol described above for hTfR1, and results are shown in FIGS. 9B, 9D, and 9F.

EC50 [nM]	Binder
> 100	B1
> 100	B2
2.3	B3
1.9	B4

Molecular target: T1, recombinant cynomolgus monkey (Macaca …)
Assay: ELISA on plate-coated recombinant cTfR1 (target per paragraph 617), fluorescent anti-(H+L) IgG-A488 detection, % normalized RFUs
Description: as §2

EC50 [nM]	Binder
3.4	B1
2	B2
